In PMC4618444, “Evaluation and directed evolution for thermostability improvement of a GH 13 thermostable α-glucosidase from Thermus thermophilus TC11” (BMC Biotechnology, 2015):
Numbering of substitutions follows the chain as printed. Names and notes keep the numbering of the source.

Columns and labels:
purified protein = substrate: O=[N+]([O-])c1ccc(O[C@H]2O[C@H](CO)[C@@H](O)[C@H](O)[C@H]2O)cc1; test: purified protein
[1] = substrate: OC[C@H]1O[C@H](O[C@H]2O[C@H](CO)[C@@H](O)[C@H](O)[C@H]2O)[C@H](O)[C@@H](O)[C@@H]1O; test: glucose release, glucose oxidase assay; assay type: biochemical, Thermus thermophilus; settings: 90 °C, citric acid-sodium phosphate buffer pH 5.0
[2] = substrate: OC[C@H]1O[C@@](CO)(O[C@H]2O[C@H](CO)[C@@H](O)[C@H](O)[C@H]2O)[C@@H](O)[C@@H]1O; test: glucose release, glucose oxidase assay; assay type: biochemical, Thermus thermophilus; settings: 90 °C, citric acid-sodium phosphate buffer pH 5.0
[3] = optimal reaction conditions (90 °C, pH 5.0), substrate pNPG implied by context
[4] = 90 °C, citric acid-sodium phosphate buffer pH 5.0

B1: TtAG (Thermus thermophilus; Q10Y) (protein)
chain: MWWKEAVIYYVYPRSFQDTNGDGVADVEGVRRRLPYLKSLGVDAIWLSPFYKSPMKDFGYDLADYCDVDPIFGTLQDFDRLLEEAHALGLRVLVDLVPNHTSSEHPWFLESRASRNSPKRDWYIWKDPAPDGGPPNNWQSFFGGPAWTLDEATGQYYLHQFLPEQPDLNWRNPEVREALYEVMRFWLRRGVDGFRVDVLWLLAEDLLFKDEPGNPDWRPGMWDRGRHLHIFTEDQPETYAYVREMRQVLDEFSEPGRERVMVGEIYLPYPQLLRYYQAGCHLPFNFHLIFRGLPDWRPENLARIVEEYESLLTRWDWPNWVLGNHDQPRLASRLGEAQARVGAMLLFTLRGTPTWYYGDEIGMKNGEIPPEKVQDPAALRQKDRLGEHQLPPGRDPERTPMQWDDTPFAGFSTVEPWLPVNPDYKTRNVAAQENDPRSMLHLVRRLIALRKDPDLLYGAYRTYRAREGVYAYLRGEGWLVAINLTEKEKALELPRGGRVVLTTHLDREERVGERLLLRPDEGVVVRLD
**Q.** With B1 as the protein, how does the Km (purified protein; [3]) read?
**A.** Its Km is 0.46 mM.

**Q.** What about the kcat (purified protein; [3]) of the same protein?
**A.** The kcat was 356.57 s⁻¹.

B2: TtAG (Thermus thermophilus) (protein)
chain: B1 chain with Y10Q
notes: trimer by DLS (184 kDa)
**Q.** Which results are given for B2?
**A.** Km [1]: 19.96 mM; kcat [1]: 140 s⁻¹; kcat/Km [1]: 7020 M⁻¹ s⁻¹; Km [2]: 30.53 mM; kcat [2]: 74.6 s⁻¹; kcat/Km [2]: 2460 M⁻¹ s⁻¹; Km (purified protein; [4]): 0.48 mM; kcat (purified protein; [4]): 659 s⁻¹; kcat/Km (purified protein; [4]): 1.37e+06 M⁻¹ s⁻¹
